The series can be described thus: soluble fraction after stress (log2 fold change); higher = more stays soluble; pooled small domains, quantitative proteomics. As to conditions: stress: 75 degC.

Experimental findings from the domain aggregation screens of Martell et al. (2025) are described below.

A value given as a limit tells only on which side of the number the result lay.
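Note: 20 min heating vs room temperature control held 20 min.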

Consider “HMSAQDLIVKTDATQVEARVLEISPEQIRYKRFSNPDGPTYVLPVDAVDYIRYANGETDSFR”, for which the “soluble fraction (log2)” value was determined as 0.076. For “HMSASAIYVRPKDVKEPEEVADYLSGVLELDREKLYKKITDKSQWIALIERKVDNDIAFDIRNKKFKGIEI”, the “soluble fraction (log2)” value is -0.301. On to “HMSASIAEGTVIMLENTTNIRSGMSEDSSKVGTAYAGEKVTVVMSYAEGWTKVKWNGETGYIKTALLQL”, for which the “soluble fraction (log2)” value is -0.607. For “HMSASNSIDFANRMIYNKNQVAVFNFGKHMGRPVLEVLKSDPSYYDWMMKGDFPMDTKRKLTEIKLQGF”, the “soluble fraction (log2)” value is -0.793. On to “HMSATPQRMTIIDALDSSGKNLSAYELLDLLNDKGQLFNISTIYRVLDFWIEMGIVHKINSSNTYL”, for which the “soluble fraction (log2)” value was 0.15. Consider “HMSATQDAAIAVRIRDILSELDGYEDVTVTVTSGIVTMRGTTLDSEKIARLNDLTGRVEGVVAIENSVTET”, for which the “soluble fraction (log2)” value was -0.207.

In the case of “HMSAVIGTATVTTSSGSLNLRESASLYSRVIRTIPRGATVDVLSRDTSWSRVRYAGSEGYVLNQYLTFQT”, the “soluble fraction (log2)” value is -2.1. The same measure for “HMSDAGMNQIGDMFRAPDLMAKLAMNPATREYVSQPDFLAMMEEVKRNPSALNNHLRDPRMMNVLSVAM”: -0.271; for “HMSDAPLLSIRSLAVAFDGTRVVDGVSFDVARGEVVALVGESGSGKTVTGLSLLDLVPPPGRRVGGEV”: 0.278; for “HMSDDAVVRMRVPEDALGLSLRETDFRQRFGVYVLAIETRDGKLLAPPDPQRPLGKDDVLVVIQKR”: -0.847. The same measure for “HMSDDLLTGLDAYSRGDWTTATASFERVLTTADPNNRTEALYWLVMSETSAQNYQRALNYANTFL”: -0.707; for “HMSDDSTIVELLASSLRRDIAFGTLLPDQKLKLNELRTRYGGSIHSMRETLRILSAEGLVEATAQRGFRVT”: 0.0731; for “HMSDEIQLQFIQISIFKDHPWADMQIKDMNIIPDLLIVMILRDGERIIPNGNTRIMPGDMVIITAMSANT”: -2.54. The same measure for “HMSDESALIAAIEKAIAAQPETAEKVRNGHLPAAGALIGSVMKETKGQADAARVRELLLGLLGQ”: 0.441; for “HMSDESRAEIVSSAKRLFQQYGYKKTTVSDIAKAMGKVKSAIYYYFPDKESLLRAVIDEEVG”: 0.0318; for “HMSDFEASDPALLREGMRVQHLNFGKGTVITIEGAGANKKASVAFDGVGTKQLMLRFARLKIIYE”: -2.59. With “HMSDFKDIILKLRNEQGFTQEKLADVLGTSKSTVGMWEMGVRFPSKELYEAIADYFNVDIDYLYGRTDIR”, the “soluble fraction (log2)” value was -0.83. “HMSDGYETLVNMAKPFLNNSKQITENDITDAVNTVSVMLKKRYDMTDEDIRKAVSELLHFYA”: the “soluble fraction (log2)” value is -0.305. On to “HMSDIDHIAGRRIRQARLNAGMTLETLASQAGISKALLSKIENSKVSSPLATFSKISKVLGVPLSDLLKE”, for which the “soluble fraction (log2)” value is -0.748. For the sequence “HMSDILALMPGTIKQILVAPGDSVKRGQTVIIMESMKMELTIAAHRDGVVKRIPVEQGGQVEKGMRLLELE”, the “soluble fraction (log2)” value is -1.86. Take “HMSDIPEGYMSRVQLGDEWGIHLATFDKAVIAVKEKLGTVVFIDKSNNTTAGYSPEQQTIIYDWLAEN”: the “soluble fraction (log2)” value is -2.22. On to “HMSDKNVYGKYKNVFLSDEEFSELKQFYPNDWSDRIETLSEGIELKGYKYKNYLLAIKKWAEYEGQKAD”, for which the “soluble fraction (log2)” value was -0.47. For the sequence “HMSDKPIFIDTAGIAALSAIGFSKYQATIIFNYIKKGGAIYTVKDLAKIYSIDQKTIDLTQSKIIFS”, the “soluble fraction (log2)” value was 0.365. “HMSDKPRYYINGNTLFISDKSVKKVLFSDLSGRSILHTTETAINIATFRGAHILTVIYTDGSTKSEVIF”: the “soluble fraction (log2)” value was -1.47. The same measure for “HMSDLLYAHPTEKGFQLVNVTQKVVMVILKTAAPNVYTVKGKNAIVFKEGNSWFYSENHNKKLLNIK”: -3.18; for “HMSDLQTGDINQDGTVDEKDLSLLHSYNLELIKTISNAADLNEDGVINGLDEAYLKRLFLQNSDP”: -0.122; for “HMSDLTEVIVKFSGDIQPIRQDLDAQVEILLKGYAIITLSPNKIGRLYSYPQIESIEIPKNLYI”: -2.73. Take “HMSDPASLQRRLMSDPELTARILDSPFTRSLLDDPNLLRQMVNANPQLRRAMDANPQLRHAL”: the “soluble fraction (log2)” value is -0.267. The same measure for “HMSDPEAFIRQTVAAAEPEGIALSVLGKRVRGKFRTFKLRDLGYAQFRPYLGDLDGIKVEQRDGQSYARLD”: -1.03. Turning to “HMSDPSRKADFIAALSSLGGSAGNGKLREQLGWDEPTYDAVKQTLLDEGAITNGRGRGGSVALAG”, the “soluble fraction (log2)” value came out at 0.976. The same measure for “HMSDPTDRLVLEAALKALGEEERQVVLLHAASGLKHREIARDLGLPLSTVLSRYSRALKKLQRYLTEEGVH”: -1.2; for “HMSDPVDDLLLRISQQAGVARGQLVAELNMLVQDRFGGNLRHEAAAVLMAKRYGIEFRDLLPALREHLVKN”: -0.804; for “HMSDPVKQVAMRILDLREISDYTVDKMAEVLNVPVEEYRKYESGEVDMPISFLVKIGEVFHVDMTELLTG”: -1.55. As to “HMSDQTYVKDPETGEIFRVHKRVWETGEFWRDPVWGNILGGVERGSELERLLREEGWRPLQQSLEGFPEQ”, the “soluble fraction (log2)” value was -0.284. On to “HMSDRESYGRYRNVSLTLSEYESLKNEYPLYADKYIERLSEYMETAGKHYNNHYATILSWLSKDIK”, for which the “soluble fraction (log2)” value is -0.201.

In the case of “HMSDSGLPLPRFVSLGDDRVNARAGPGFRFPINWVYLRKNFPVEVIDEFGHWRRIKDIDGIEGWIHLSML”, the “soluble fraction (log2)” value was -0.793. With “HMSDTSELESIIAQIIEDNPKSIEDIGAGNQKAYGFLTGQVMKATKGQANPQVANKIIRELVARKLE”, the “soluble fraction (log2)” value was at least 1.04. The same measure for “HMSDTVDITKLGIAGKTKEAAEALLKENGFSVESKEENSDTIEKGKVISYSPTKPKNGDRITLIVSSGKK”: 0.294. On to “HMSEDTYNTLTKGTRVYNGVDYGAKYGYNPLYYFLNYNDLRIAYGADPAKLVEHYALFGIKENRVANRQIT”, for which the “soluble fraction (log2)” value is -1.33. In the case of “HMSEEELETSGLVKRSAKGNLYDIFRHRVMVPIIDVRGAIIAFGGRVLDDSKPKYINSPETMVY”, the “soluble fraction (log2)” value is -0.0708. The same measure for “HMSEEQLKAFLEKVQGDTSLQEKLKAAADANAVVEIAKEAGFSISADDLKNAQSELSEEELE”: -0.00468; for “HMSEEVDVPDLVGMQLEEAEKSLEPLGLKLKIAKEIPNSEFEKGKIVDQKTKAGEKVKTGYTIEVTVSSG”: -0.126. In the case of “HMSEFAYPISLNGKTKFNLALSLALTKEEIEKEVLANADVQKFLNGQTPKKLIVVPGKIVNVV”, the “soluble fraction (log2)” value is -0.386.

Turning to “HMSEGEMSQWIIAQAKQQGGGFQPDAARLLGSYVGNNTLRARQEIDKLLTYVGPSRVVTPEDVVLLTA”, the “soluble fraction (log2)” value was -0.23. For “HMSEHKFIVPEEFNLKRLDQTVAAQFEKISRTKISKIIKSSLLKVNDKVVTDQSIKIKQDDVITFTEIKDQ”, the “soluble fraction (log2)” value was -0.421.

On to “HMSEKRLHLVVDESDVNTRIDKYIADELDGYSRSFIQKLIKDNNVLVNGRAVKPNYNIGISDNIDIVLPKL”, for which the “soluble fraction (log2)” value amounted to 0.0186.

On to “HMSELIDSLTEAVRSAPDAVPLRLHLAELLLADGQRDRAFAQLGQVLAKDPQNARALEMLGVGS”, for which the “soluble fraction (log2)” value is -0.129.

For “HMSELSEVIEKTFEELPEELKLIVKLREIDDLSYDEISNKIGIPIGTVRSRLHRAREILINIIKN”, the “soluble fraction (log2)” value is -2.5. The same measure for “HMSELSGSQLKAIREEKHIPLEQVASATRIRLSLLEALEMDEYAELGSRTQARGFLKLYADFLGVPFEA”: -1.53; for “HMSEMDNMEWVREQYFQNMIYEIGEWVRDKKTGIVGEVVKRGTNYVTVVQEDFSLHKIWLEDLETTEK”: -0.841; for “HMSEMLPFDEARRQFERDYLVQLLKLTSGNVSQAARLARRNRTDFYALLGRHQLEPASFKPE”: -0.971. The same measure for “HMSEMVIPEDFLAALETNPQAKAFYATLNRQNQYAVYHRLQTAKRPETRAKRIADFVAQLAAGKRF”: -1.03; for “HMSEPHPPFQVVAQFPYKSEYEDDLNFEKDQIITVTSIEDDEWYYGDFKNKGGELVEGIFPKSFVTVK”: -0.31.

Turning to “HMSEPQYKVLFSNLDDRDGGAIVTALGAMNVPYKYNDTGTALLVPADRVYDARLQLASQGLPRG”, the “soluble fraction (log2)” value was determined as 0.262. “HMSEPTVVAINETLTSERLDRYLTTQLPHISRGGIQRLLRKGNILVDGKPAKPTQHPVAGQTVEITWPIPK”: the “soluble fraction (log2)” value was -0.607. For the sequence “HMSEQMQVGELVFQLHRKAIKNLHINVLPPDGFVRVSAPQAMTETAIRTAVISRLPWIRRQQQAFAAQ”, the “soluble fraction (log2)” value is -3.48. As to “HMSERVVEIDPSQLRPGLFIRLPSGWMNHPFLFNQFRINSAEQVEIIQKLGLKTVQYLPERSSTQALPRA”, the “soluble fraction (log2)” value is -1.95. As for “HMSESEDFQNRWRPWRSLLDDETPVVREALVDQLKLFPEEGRLFLQQMSEEDDPISARHAFELIKSLGW”, the “soluble fraction (log2)” value is -0.363. In the case of “HMSETAVTYNEDFEADGSLRPNEQAVLDAFTGVLKLTVSELEKKTGLRNVVPVVASLMAKGAVEVSEELK”, the “soluble fraction (log2)” value was -0.0304. “HMSETEWGEIYRKVMAAGLIPARSVRERLLALPSIEPLLQAAEAAGSKGMLDETLLDSLLSKT”: the “soluble fraction (log2)” value came to 0.0662. The same measure for “HMSETLESYTTRLKQLEEIADSFQGVDKTFAIQAGREIRVMVVPEQISDDDMILLARDISNQIEENLDY”: -0.234. For “HMSEVIYVAEDNVGQRIDVFLVNKLVDASRANIQKNIVDGVILVNNKNVKANYKLRLGDVVEIRTQ”, the “soluble fraction (log2)” value is -1.38. Turning to “HMSEVPAAVLVTGGSINLREAPSTDATIIDVAQVGEKMTVLAEKNSWYQVSRGGRNVWVASWVVDPLT”, the “soluble fraction (log2)” value was -0.066. Take “HMSEVTYQETLRLLRRAIDVLPQQSRQIILLGLSGKNNNEVAEMLGISVNTVKTLKKGAYKSLRNSL”: the “soluble fraction (log2)” value is -1.87.

As to “HMSEYITEGWLREKFGLGWGTEVHLPLDSRLTPAAHQLLEERKIVIKYIDAEGRVFNPDKSGEEAPVQ”, the “soluble fraction (log2)” value was -0.41. With “HMSEYVIVTGEKVNLRVGPGMDYEIAGQVVKGDKLELLASEGDWSKVKTGSGSIYYISSSLVQKA”, the “soluble fraction (log2)” value was -0.157.

“HMSFDGFSDRLKSVLNSGKYTQKEAAEKINISEYSFTKYLNGRIPQTEILYKIARLYNKSMEWLLTGKDPI”: the “soluble fraction (log2)” value was -2.74. Turning to “HMSFGWELYKGKEGIADTDLHPSGWIRIADKRVFAVSEGEFIEKGLEIIVLSVDGNRIVVRELK”, the “soluble fraction (log2)” value is -1.93. The same measure for “HMSFGWETLEGKEGVTDTDLHPSGWVKVGDEKIFVVSQGEFLGKGTDIVVVSVDGNRVVVKELI”: -0.998; for “HMSFKQARFMMDAANGKALAWLYSHAEVLDRKDQGENIEIHVMISPADLSRFVNAFGYQPVQS”: -1.07.
